In the supplement of paper PMC9112550, “Optimization of the antimicrobial peptide Bac7 by deep mutational scanning” (BMC Biology, 2022):

Test system: Escherichia coli TOP10
Experiment: shrunken log2 fold change of peptide-encoding DNA abundance (4.5 h post-induction vs induction); higher = less antimicrobial activity (less host growth inhibition)
Conditions: time post-induction: 4.5 h; library: site-saturation at positions 5, 18, 19, 20
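Further: peptides expressed intracellularly from a pBAD plasmid library in pooled LB shake-flask culture, induced with 0.3% L-arabinose, DNA abundance read by NGS, three biological replicates, DESeq2 with apeglm shrinkage.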

Sequence | shrunken log2 fold change
RRIRQRPPRLPRPRPRPRWAPRP | 0.144
RRIRPRPPRLPRPRPRPHSNPRP | -0.316
RRIRVRPPRLPRPRPRPLVLPRP | -0.122
RRIRGRPPRLPRPRPRPTCYPRP | 0.34
RRIRIRPPRLPRPRPRPYEWPRP | -0.00783
RRIRLRPPRLPRPRPRPGYCPRP | -0.416
RRIRGRPPRLPRPRPRPRDLPRP | 0.473
RRIRQRPPRLPRPRPRPYIMPRP | -1.64
RRIRYRPPRLPRPRPRPHQIPRP | -0.201
RRIRTRPPRLPRPRPRPSLKPRP | -0.359
RRIRCRPPRLPRPRPRPEVNPRP | -0.00709
RRIRKRPPRLPRPRPRPHKAPRP | -0.0179
RRIRKRPPRLPRPRPRPGLDPRP | 0.626
RRIRVRPPRLPRPRPRPWCGPRP | 0.0506
RRIRWRPPRLPRPRPRPPYHPRP | -0.106
RRIRDRPPRLPRPRPRPLSFPRP | 0.0422
RRIRRRPPRLPRPRPRPFYVPRP | -0.0483
RRIRWRPPRLPRPRPRPFFQPRP | 0.329
RRIRTRPPRLPRPRPRPAYHPRP | -0.0827
RRIRDRPPRLPRPRPRPHSFPRP | 0.0961

Sequence | shrunken log2 fold change
RRIRIRPPRLPRPRPRPEEFPRP | -0.0304
RRIRPRPPRLPRPRPRPFPFPRP | -0.00615
RRIRVRPPRLPRPRPRPCWTPRP | -0.665
RRIRARPPRLPRPRPRPDCKPRP | -0.129
RRIRHRPPRLPRPRPRPYDWPRP | -0.0123
RRIRNRPPRLPRPRPRPKYRPRP | -0.0413
RRIRVRPPRLPRPRPRPTKCPRP | -0.458
RRIRHRPPRLPRPRPRPKDSPRP | 0.0292
RRIRSRPPRLPRPRPRPCWFPRP | -0.0822
RRIRHRPPRLPRPRPRPTWGPRP | 0.0618
RRIRDRPPRLPRPRPRPKPAPRP | 0.278
RRIRHRPPRLPRPRPRPTVYPRP | -0.219
RRIRDRPPRLPRPRPRPRMQPRP | -0.196
RRIRNRPPRLPRPRPRPHFGPRP | -0.104
RRIRLRPPRLPRPRPRPMSIPRP | -0.159
RRIRQRPPRLPRPRPRPHKDPRP | -0.105
RRIRIRPPRLPRPRPRPSDDPRP | -0.191
RRIRVRPPRLPRPRPRPPYAPRP | -0.00506
RRIRWRPPRLPRPRPRPDFKPRP | -0.0843
RRIRMRPPRLPRPRPRPVDEPRP | -0.00101

Sequence | shrunken log2 fold change
RRIRWRPPRLPRPRPRPHLDPRP | -0.0108
RRIRVRPPRLPRPRPRPAMNPRP | -0.498
RRIRQRPPRLPRPRPRPSMGPRP | -0.163
RRIRVRPPRLPRPRPRPCTIPRP | -0.0586
RRIRDRPPRLPRPRPRPDLPPRP | 0.337
RRIRLRPPRLPRPRPRPYLNPRP | -1.13
RRIRERPPRLPRPRPRPAWDPRP | 0.0257
RRIRSRPPRLPRPRPRPMITPRP | -0.19
RRIRARPPRLPRPRPRPEKQPRP | -0.148
RRIRQRPPRLPRPRPRPKNAPRP | 0.0178
RRIRHRPPRLPRPRPRPIWQPRP | -0.123
RRIRLRPPRLPRPRPRPMQPPRP | 0.303
RRIRPRPPRLPRPRPRPQYQPRP | -0.263
RRIRIRPPRLPRPRPRPENHPRP | -0.143
RRIRPRPPRLPRPRPRPDLQPRP | -0.221
RRIRMRPPRLPRPRPRPNMVPRP | -0.147
RRIRFRPPRLPRPRPRPTPCPRP | 0.107
RRIRDRPPRLPRPRPRPIARPRP | 0.199
RRIRARPPRLPRPRPRPQDGPRP | 0.214
RRIRNRPPRLPRPRPRPTCNPRP | -0.288
